The supplement of paper PMC9112550, “Optimization of the antimicrobial peptide Bac7 by deep mutational scanning” (BMC Biology, 2022)

Tested on: Escherichia coli TOP10
Assay: shrunken log2 fold change of peptide-encoding DNA abundance (4.5 h post-induction vs induction); higher = less antimicrobial activity (less host growth inhibition)
Conditions: time post-induction: 4.5 h; library: site-saturation at positions 5, 18, 19, 20
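Further: peptides expressed intracellularly from a pBAD plasmid library in pooled LB shake-flask culture, induced with 0.3% L-arabinose, DNA abundance read by NGS, three biological replicates, DESeq2 with apeglm shrinkage.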

| Sequence | shrunken log2 fold change |
| --- | --- |
| RRIRKRPPRLPRPRPRPHKNPRP | 0.207 |
| RRIRSRPPRLPRPRPRPFCAPRP | 0.0376 |
| RRIRCRPPRLPRPRPRPIKCPRP | -0.165 |
| RRIRNRPPRLPRPRPRPKMAPRP | -0.00757 |
| RRIRARPPRLPRPRPRPLTHPRP | 0.227 |
| RRIRDRPPRLPRPRPRPCSRPRP | 0.0202 |
| RRIRWRPPRLPRPRPRPTQVPRP | 0.477 |
| RRIRHRPPRLPRPRPRPVIHPRP | -0.283 |
| RRIRNRPPRLPRPRPRPVVKPRP | 0.0106 |
| RRIRGRPPRLPRPRPRPQNCPRP | 0.0394 |
| RRIRCRPPRLPRPRPRPQIWPRP | -0.226 |
| RRIRDRPPRLPRPRPRPRKTPRP | 0.379 |
| RRIRLRPPRLPRPRPRPSWLPRP | -0.532 |
| RRIRHRPPRLPRPRPRPCEIPRP | -0.171 |
| RRIRYRPPRLPRPRPRPEYFPRP | -0.744 |
| RRIRFRPPRLPRPRPRPKMLPRP | -0.0622 |
| RRIRERPPRLPRPRPRPCGYPRP | -0.239 |
| RRIRQRPPRLPRPRPRPMTNPRP | -0.0671 |
| RRIRCRPPRLPRPRPRPENAPRP | 0.117 |
| RRIRDRPPRLPRPRPRPGWLPRP | 0.127 |
| RRIRWRPPRLPRPRPRPTCMPRP | 0.553 |
| RRIRNRPPRLPRPRPRPKSQPRP | 0.0119 |
| RRIRYRPPRLPRPRPRPTLDPRP | -0.628 |
| RRIRTRPPRLPRPRPRPSQHPRP | -0.387 |
| RRIRRRPPRLPRPRPRPMHLPRP | 0.156 |

| Sequence | shrunken log2 fold change |
| --- | --- |
| RRIRPRPPRLPRPRPRPHINPRP | -1.16 |
| RRIRQRPPRLPRPRPRPHTPPRP | -0.147 |
| RRIRMRPPRLPRPRPRPCCDPRP | 0.393 |
| RRIRCRPPRLPRPRPRPRSHPRP | -0.00365 |
| RRIRNRPPRLPRPRPRPRTDPRP | 0.089 |
| RRIRERPPRLPRPRPRPRHLPRP | -0.427 |
| RRIRRRPPRLPRPRPRPVMIPRP | 0.224 |
| RRIRKRPPRLPRPRPRPREIPRP | 0.736 |
| RRIRTRPPRLPRPRPRPSMAPRP | 0.444 |
| RRIRRRPPRLPRPRPRPGMCPRP | 0.269 |
| RRIRIRPPRLPRPRPRPMHWPRP | -0.194 |
| RRIRPRPPRLPRPRPRPRGHPRP | 0.0129 |
| RRIRHRPPRLPRPRPRPIMRPRP | -0.0864 |
| RRIRRRPPRLPRPRPRPHNQPRP | -0.114 |
| RRIRERPPRLPRPRPRPKLQPRP | 0.00297 |
| RRIRVRPPRLPRPRPRPSTCPRP | -0.325 |
| RRIRQRPPRLPRPRPRPLSCPRP | -0.242 |
| RRIRPRPPRLPRPRPRPRYAPRP | 0.0891 |
| RRIRRRPPRLPRPRPRPRAHPRP | 0.592 |
| RRIRVRPPRLPRPRPRPPKNPRP | 0.192 |
| RRIRGRPPRLPRPRPRPDLHPRP | 0.655 |
| RRIRWRPPRLPRPRPRPGKIPRP | 0.159 |
| RRIRPRPPRLPRPRPRPRHIPRP | -0.0802 |
| RRIRMRPPRLPRPRPRPQRSPRP | 0.629 |
| RRIRVRPPRLPRPRPRPSVDPRP | -0.193 |

| Sequence | shrunken log2 fold change |
| --- | --- |
| RRIRSRPPRLPRPRPRPQTIPRP | -0.502 |
| RRIRRRPPRLPRPRPRPAKDPRP | 0.185 |
| RRIRARPPRLPRPRPRPLVEPRP | 0.666 |
| RRIRIRPPRLPRPRPRPITIPRP | -0.436 |
| RRIRWRPPRLPRPRPRPLPTPRP | 0.463 |
| RRIRLRPPRLPRPRPRPTWKPRP | -0.06 |
| RRIRARPPRLPRPRPRPKWDPRP | 0.373 |
| RRIRRRPPRLPRPRPRPWEKPRP | 0.0936 |
| RRIRDRPPRLPRPRPRPVDAPRP | -0.0229 |
| RRIRTRPPRLPRPRPRPCPQPRP | -0.312 |
| RRIRWRPPRLPRPRPRPCVWPRP | 0.738 |
| RRIRMRPPRLPRPRPRPYDPPRP | -0.328 |
| RRIRDRPPRLPRPRPRPMMFPRP | 0.43 |
| RRIRDRPPRLPRPRPRPIRPPRP | -0.0136 |
| RRIRYRPPRLPRPRPRPFMWPRP | -0.307 |
| RRIRWRPPRLPRPRPRPLKSPRP | 0.183 |
| RRIRFRPPRLPRPRPRPTWNPRP | -0.166 |
| RRIRKRPPRLPRPRPRPELVPRP | 0.133 |
| RRIRWRPPRLPRPRPRPPPGPRP | 1.08 |
| RRIRLRPPRLPRPRPRPPKCPRP | 0.213 |
| RRIRDRPPRLPRPRPRPNMQPRP | -0.339 |
| RRIRKRPPRLPRPRPRPNMCPRP | 0.0251 |
| RRIRSRPPRLPRPRPRPAGQPRP | -0.0166 |
| RRIRHRPPRLPRPRPRPATYPRP | -0.501 |
| RRIRDRPPRLPRPRPRPWLKPRP | -0.00783 |

| Sequence | shrunken log2 fold change |
| --- | --- |
| RRIRQRPPRLPRPRPRPRSEPRP | 0.234 |
| RRIRNRPPRLPRPRPRPHYIPRP | -0.842 |
| RRIRLRPPRLPRPRPRPTSHPRP | -0.0914 |
| RRIRYRPPRLPRPRPRPCFFPRP | -0.619 |
| RRIRHRPPRLPRPRPRPEKFPRP | -0.0202 |
| RRIRFRPPRLPRPRPRPAHHPRP | -0.152 |
| RRIRDRPPRLPRPRPRPNRKPRP | -0.355 |
| RRIRKRPPRLPRPRPRPIRCPRP | 0.0497 |
| RRIRLRPPRLPRPRPRPKCPPRP | -0.193 |
| RRIRMRPPRLPRPRPRPMTSPRP | 0.157 |
| RRIRIRPPRLPRPRPRPVFKPRP | -0.25 |
| RRIRDRPPRLPRPRPRPMRKPRP | 0.763 |
| RRIRMRPPRLPRPRPRPHIWPRP | -0.0244 |
| RRIRPRPPRLPRPRPRPVCCPRP | 0.122 |
| RRIRLRPPRLPRPRPRPKNPPRP | -0.606 |
| RRIRARPPRLPRPRPRPWYHPRP | -0.0138 |
| RRIRHRPPRLPRPRPRPKWDPRP | -0.00576 |
| RRIRQRPPRLPRPRPRPRIDPRP | 0.0868 |
| RRIRMRPPRLPRPRPRPAAAPRP | 2.93 |
| RRIRHRPPRLPRPRPRPHAFPRP | -0.0301 |
| RRIRRRPPRLPRPRPRPWRSPRP | 0.181 |
| RRIRQRPPRLPRPRPRPRHCPRP | -0.0425 |
| RRIRFRPPRLPRPRPRPEDYPRP | 0.0145 |
| RRIRYRPPRLPRPRPRPRTFPRP | -0.757 |
| RRIRIRPPRLPRPRPRPDWEPRP | -0.0114 |

| Sequence | shrunken log2 fold change |
| --- | --- |
| RRIRERPPRLPRPRPRPAQYPRP | 0.0972 |
| RRIRKRPPRLPRPRPRPEVQPRP | 3.94 |
| RRIRKRPPRLPRPRPRPAGVPRP | 0.685 |
| RRIRTRPPRLPRPRPRPPRTPRP | 0.281 |
| RRIRIRPPRLPRPRPRPQCMPRP | -0.836 |
| RRIRSRPPRLPRPRPRPPMGPRP | -0.0142 |
| RRIRGRPPRLPRPRPRPQGKPRP | 0.0794 |
| RRIRQRPPRLPRPRPRPTIWPRP | -0.0969 |
| RRIRYRPPRLPRPRPRPDKAPRP | 0.0133 |
| RRIRQRPPRLPRPRPRPKNYPRP | -0.216 |
| RRIRNRPPRLPRPRPRPSADPRP | 0.212 |
| RRIRKRPPRLPRPRPRPLNDPRP | -0.0546 |
| RRIRWRPPRLPRPRPRPVFSPRP | -0.0517 |
| RRIRNRPPRLPRPRPRPTWSPRP | -0.352 |
| RRIRERPPRLPRPRPRPWFCPRP | -0.375 |
| RRIRVRPPRLPRPRPRPDFHPRP | -0.208 |
| RRIRMRPPRLPRPRPRPDLMPRP | -0.0157 |
| RRIRKRPPRLPRPRPRPMIIPRP | -0.0318 |
| RRIRKRPPRLPRPRPRPNNKPRP | -0.162 |
| RRIRCRPPRLPRPRPRPCTDPRP | 0.0806 |
| RRIRGRPPRLPRPRPRPWIGPRP | 0.0233 |
| RRIRKRPPRLPRPRPRPRDMPRP | 0.0936 |
| RRIRYRPPRLPRPRPRPPKVPRP | -0.149 |
| RRIRIRPPRLPRPRPRPLKHPRP | -0.58 |
| RRIRMRPPRLPRPRPRPPLSPRP | 0.185 |

| Sequence | shrunken log2 fold change |
| --- | --- |
| RRIRKRPPRLPRPRPRPRNLPRP | 0.525 |
| RRIRYRPPRLPRPRPRPSGAPRP | -0.299 |
| RRIRCRPPRLPRPRPRPKDLPRP | -0.46 |
| RRIRGRPPRLPRPRPRPGHAPRP | 0.801 |
| RRIRERPPRLPRPRPRPEVWPRP | 0.4 |
| RRIRDRPPRLPRPRPRPLDKPRP | -0.0615 |
| RRIRARPPRLPRPRPRPIMSPRP | 0.0485 |
| RRIRFRPPRLPRPRPRPLQKPRP | -0.235 |
| RRIRRRPPRLPRPRPRPPLAPRP | 1.18 |
| RRIRKRPPRLPRPRPRPMALPRP | -0.00663 |
| RRIRCRPPRLPRPRPRPGQQPRP | 0.0269 |
| RRIRCRPPRLPRPRPRPYHFPRP | -1.01 |
| RRIRVRPPRLPRPRPRPSCAPRP | -0.16 |
| RRIRTRPPRLPRPRPRPLYNPRP | -0.715 |
| RRIRCRPPRLPRPRPRPWQQPRP | -0.000303 |
| RRIRQRPPRLPRPRPRPWIRPRP | -0.166 |
| RRIRPRPPRLPRPRPRPLSVPRP | -0.121 |
| RRIRSRPPRLPRPRPRPHRMPRP | -0.697 |
| RRIRSRPPRLPRPRPRPELFPRP | 0.104 |
| RRIRMRPPRLPRPRPRPYNIPRP | -0.358 |
| RRIRHRPPRLPRPRPRPVQIPRP | -0.0126 |
| RRIRGRPPRLPRPRPRPPRYPRP | 0.701 |
| RRIRQRPPRLPRPRPRPPSFPRP | 0.0399 |
| RRIRCRPPRLPRPRPRPPAMPRP | 0.241 |
| RRIRVRPPRLPRPRPRPPQFPRP | 0.146 |
